# From the supplement of paper PMC7125110
# ± gives the standard error. Fewer inactive variants are shown than the library holds.
# B1: glmS ribozyme (parent)
# chain: AUAAAAGCGCCAGAACUACAGAAAUGUAGUUGACGAGGAGGAGGUUUAUCGAAUUUUCGGCGGAUGCCUCCAAA
# Assays:
# Details in all cases: with glucosamine-6-phosphate
# glucosamine-6-phosphate [1] = variants of: B1; test: self-cleavage kobs at 40 uM GlcN6P; higher = faster cleavage; RNA array
# Procedure, shortened: (§1)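 Barcoded glmS ribozyme variants on sequenced MiSeq chips were transcribed in situ by E. coli RNA polymerase and tracked through a hybridised Cy3 probe at 37 °C. Glucosamine-6-phosphate (40 μM to 10 mM) in HEPES/KCl/Mg(OAc)2 buffer was flowed in, and tiles were imaged over ~14 h. Signals were normalised to baseline and to non-cleaving reference variants; per-tile medians were fit to one- or two-exponential decays to give kobs. kcat and KM came from weighted Michaelis–Menten fits across concentrations.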
# glucosamine-6-phosphate [2] = variants of: B1; test: self-cleavage kobs at 640 uM GlcN6P; higher = faster cleavage; RNA array
# Procedure, shortened: as §1
# glucosamine-6-phosphate [3] = variants of: B1; test: self-cleavage kobs at 2500 uM GlcN6P; higher = faster cleavage; RNA array
# Procedure, shortened: as §1
# glucosamine-6-phosphate [4] = variants of: B1; test: self-cleavage kobs at 10000 uM GlcN6P; higher = faster cleavage; RNA array
# Procedure, shortened: as §1
# glucosamine-6-phosphate [5] = variants of: B1; test: self-cleavage kobs at 160 uM GlcN6P; higher = faster cleavage; RNA array
# Procedure, shortened: as §1
Variant,self-cleavage kobs at 40 uM GlcN6P (glucosamine-6-phosphate [1]),self-cleavage kobs at 640 uM GlcN6P (glucosamine-6-phosphate [2]),self-cleavage kobs at 2500 uM GlcN6P (glucosamine-6-phosphate [3]),self-cleavage kobs at 10000 uM GlcN6P (glucosamine-6-phosphate [4]),self-cleavage kobs at 160 uM GlcN6P (glucosamine-6-phosphate [5])
A14C A36G A48U G59A,< 1e-05 s⁻¹,< 1e-05 s⁻¹,< 1e-05 s⁻¹,< 1e-05 s⁻¹,
G13C G60C,< 1e-05 s⁻¹,,,< 1e-05 s⁻¹,< 1e-05 s⁻¹
A15G C71U,0.00111 ± 0.0001 s⁻¹,0.00696 ± 0.0013 s⁻¹,0.0534 ± 0.021 s⁻¹,0.0519 ± 0.014 s⁻¹,0.00193 ± 0.00039 s⁻¹
G13U C50G C67A,0.000194 ± 4.6e-05 s⁻¹,,0.000138 ± 2.2e-05 s⁻¹,0.000101 ± 2.5e-05 s⁻¹,0.000278 ± 4.6e-05 s⁻¹
G13U U57G,< 1e-05 s⁻¹,,,,
A14C A15C G62U G63C,< 1e-05 s⁻¹,,,,
C16G G35C A36U A42U C50U,< 1e-05 s⁻¹,,,< 1e-05 s⁻¹,
A14U G37A G43U C68G C70G,< 1e-05 s⁻¹,,,,
A15C U57C,< 1e-05 s⁻¹,,,5.67e-05 ± 6.7e-06 s⁻¹,
A15G G21U A33G,< 1e-05 s⁻¹,,,< 1e-05 s⁻¹,
A15G G43U A53C,< 1e-05 s⁻¹,,,,
A15C C50G A53G,7e-05 ± 2.9e-05 s⁻¹,,,,
A14U U47A,0.000141 ± 1.5e-05 s⁻¹,,,0.00513 ± 0.00047 s⁻¹,0.000575 ± 0.00028 s⁻¹
A14U G29U G35A,< 1e-05 s⁻¹,,,,
A14G A15C U54G,0.000827 ± 0.00016 s⁻¹,,,0.048 ± 0.017 s⁻¹,
A15G G44U C68G,< 1e-05 s⁻¹,,,,
A15C C16A U31G A36G A39G A42C,< 1e-05 s⁻¹,,< 1e-05 s⁻¹,,
A14G A15U U31C,0.000793 ± 0.00021 s⁻¹,,,0.0212 ± 0.0057 s⁻¹,
A14U C50G C58U,0.000443 ± 0.00014 s⁻¹,,,3.69e-05 ± 1.8e-05 s⁻¹,
C16U A36G,< 1e-05 s⁻¹,< 1e-05 s⁻¹,,,< 1e-05 s⁻¹

Variant,self-cleavage kobs at 40 uM GlcN6P (glucosamine-6-phosphate [1]),self-cleavage kobs at 640 uM GlcN6P (glucosamine-6-phosphate [2]),self-cleavage kobs at 2500 uM GlcN6P (glucosamine-6-phosphate [3]),self-cleavage kobs at 10000 uM GlcN6P (glucosamine-6-phosphate [4]),self-cleavage kobs at 160 uM GlcN6P (glucosamine-6-phosphate [5])
A15U G38C G66U C67U,< 1e-05 s⁻¹,,,< 1e-05 s⁻¹,
A15U G38U C50G,0.000125 ± 3.7e-05 s⁻¹,,,,
G13U U31C A64U,< 1e-05 s⁻¹,,,,
A15G G29A U55G,5.71e-05 ± 1.7e-05 s⁻¹,,,0.00317 ± 0.00043 s⁻¹,
C16A G44A,< 1e-05 s⁻¹,,,,< 1e-05 s⁻¹
C16A G44U,< 1e-05 s⁻¹,< 1e-05 s⁻¹,,,< 1e-05 s⁻¹
C16G G51C U55A U65A,< 1e-05 s⁻¹,,< 1e-05 s⁻¹,< 1e-05 s⁻¹,
A15C C16U U57A G66C,< 1e-05 s⁻¹,,,< 1e-05 s⁻¹,
A15G U55G G63A,< 1e-05 s⁻¹,,,< 1e-05 s⁻¹,
G13C G35U G41U G43A G60C,< 1e-05 s⁻¹,,,,
A14U A15G A33U A48U C50U G60C,< 1e-05 s⁻¹,,,,
A15G G41A U57G,< 1e-05 s⁻¹,,,,
A14C A42C,< 1e-05 s⁻¹,< 1e-05 s⁻¹,< 1e-05 s⁻¹,,
A15U C34U,< 1e-05 s⁻¹,< 1e-05 s⁻¹,< 1e-05 s⁻¹,,< 1e-05 s⁻¹
G13U G40U A48C A53G U57G,< 1e-05 s⁻¹,,,,
C16G G44U U65A,< 1e-05 s⁻¹,,< 1e-05 s⁻¹,,
G13U A14C G35U G59C,< 1e-05 s⁻¹,,,,
A15G A36C C68G,6.45e-05 ± 2.9e-05 s⁻¹,,,,
C16U A33U G51C,< 1e-05 s⁻¹,,,,
C16G G29U C71U,0.000193 ± 4.3e-05 s⁻¹,0.00358 ± 0.00079 s⁻¹,0.00344 ± 0.0014 s⁻¹,0.013 ± 0.0037 s⁻¹,

Variant,self-cleavage kobs at 40 uM GlcN6P (glucosamine-6-phosphate [1]),self-cleavage kobs at 640 uM GlcN6P (glucosamine-6-phosphate [2]),self-cleavage kobs at 2500 uM GlcN6P (glucosamine-6-phosphate [3]),self-cleavage kobs at 10000 uM GlcN6P (glucosamine-6-phosphate [4]),self-cleavage kobs at 160 uM GlcN6P (glucosamine-6-phosphate [5])
C16G A48C C50A C58U A64U,< 1e-05 s⁻¹,,,< 1e-05 s⁻¹,
C16A G37C,< 1e-05 s⁻¹,,,,
A14G U31G G40A C71A,5.41e-05 ± 1.8e-05 s⁻¹,,,0.000822 ± 0.00016 s⁻¹,
A14U U31G G38C A52U A53U,< 1e-05 s⁻¹,,,,
G13C U65G,< 1e-05 s⁻¹,< 1e-05 s⁻¹,< 1e-05 s⁻¹,,< 1e-05 s⁻¹
G13U G62A,< 1e-05 s⁻¹,,< 1e-05 s⁻¹,< 1e-05 s⁻¹,
G13C G35C A39U,< 1e-05 s⁻¹,,,,
C16A A42C G66U,< 1e-05 s⁻¹,,,< 1e-05 s⁻¹,
C16G U56A C71U,0.000174 ± 5.5e-05 s⁻¹,,,,
A15U G63U,< 1e-05 s⁻¹,< 1e-05 s⁻¹,,< 1e-05 s⁻¹,< 1e-05 s⁻¹
A14U G37A A39C G59C,< 1e-05 s⁻¹,,,,
A15G G35A,< 1e-05 s⁻¹,,,< 1e-05 s⁻¹,< 1e-05 s⁻¹
A15G A33U C71U,< 1e-05 s⁻¹,,,5.87e-05 ± 1.3e-05 s⁻¹,
A14U G35U G44C U57C,< 1e-05 s⁻¹,,< 1e-05 s⁻¹,< 1e-05 s⁻¹,
A14G U69C C70U,0.000104 ± 3.2e-05 s⁻¹,,,0.00316 ± 0.00074 s⁻¹,
G13U G38C G43U,< 1e-05 s⁻¹,,,< 1e-05 s⁻¹,
A14C U49A,< 1e-05 s⁻¹,< 1e-05 s⁻¹,,< 1e-05 s⁻¹,
A14G G38U C50U,< 1e-05 s⁻¹,,,,
C16A G62C,< 1e-05 s⁻¹,< 1e-05 s⁻¹,< 1e-05 s⁻¹,< 1e-05 s⁻¹,< 1e-05 s⁻¹
A15U G40U G51U C71U,< 1e-05 s⁻¹,,,,
